{"source": "paper PMC11819540", "about": "“A new method for the reproducible development of aptamers (Neomers)”", "binders": {"B1": {"name": "IL-6-4202.1 (ssDNA)", "DNA": "GTCCTGAGGTGTGAATACAAACCATCGG", "modifications": "thiol"}, "B2": {"name": "IL-6-6449 (ssDNA)", "DNA": "TGTGTATAAGTCGCGAGGTTTGAATGCGAACCATCGGCGCCAACAAAACATTCAAACAGAAATCTACTAGTCAC", "modifications": "thiol"}, "B3": {"name": "IL-6-7326.1 (ssDNA)", "DNA": "CAAGAGGGTTGAATTGCAACCATCGGC", "modifications": "thiol"}}, "data": [{"biological_target": "Interleukin 6 (IL-6) (Homo sapiens, UniProt P05231 30-212)", "sequence (P05231 30-212)": "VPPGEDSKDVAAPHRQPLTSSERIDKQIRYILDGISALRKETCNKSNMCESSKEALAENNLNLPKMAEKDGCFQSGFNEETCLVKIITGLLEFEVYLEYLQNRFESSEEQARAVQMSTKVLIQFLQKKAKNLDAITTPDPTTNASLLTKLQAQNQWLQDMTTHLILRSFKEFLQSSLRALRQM", "experiment": "SPRi; SPRi running buffer: 400 mM 6-aminohexanoic acid, 2 mM TETA, 100 mM NaCl, pH 5.7 ± 0.1, 25 °C; aptamers immobilized on gold, protein in flow at 50 µL/min", "settings": "protein: commercial", "units": {"Kd": "nM"}, "values": [{"binder": "B1", "Kd": 73.2}, {"binder": "B2", "Kd": 32.1}, {"binder": "B3", "Kd": 27}]}]}
